Test results taken from FireProtDB (doi:10.1016/j.jmb.2003.11.056).
Values joined by “and” are separate entries in the source; they are usually repeats but may differ in a detail not shown here. Equal values may be shown once.

Conditions: Escherichia coli (strain K12), Thermal, Fluorescence, whole UniProt chain shown

B1: Iron-sulfur cluster assembly protein CyaY wild type, P27838 (protein)
chain: MNDSEFHRLADQLWLTIEERLDDWDGDSDIDCEINGGVLTITFENGSKIIINRQEPLHQVWLATKQGGYHFDLKGDEWICDRSGETFWDLLEQAATQQAGETVSFR
- Tm (pH 7, phosphate 20 mM): 53.2 °C and 53.9 °C and 53.8 °C
- Tm (pH 7.2, Hepes 10 mM): 49.2 °C and 50.9 °C
